Measured values taken from patent US20040170969A1 (published 2004).

B1: DKFZp434D174.1 (GI 7512558) (other, UniProt P57678 1-1058, looked up)
chain: MDLGPLNICEEMTILHGGFLLAEQLFHPKALAELTKSDWERVGRPIVEALREISSAAAHSQPFAWKKKALIIIWAKVLQPHPVTPSDTETRWQEDLFFSVGNMIPTINHTILFELLKSLEASGLFIQLLMALPTTICHAELERFLEHVTVDTSAEDVAFFLDVWWEVMKHKGHPQDPLLSQFSAMAHKYLPALDEFPHPPKRLRSDPDACPTMPLLAMLLRGLTQIQSRILGPGRKCCALANLADMLTVFALTEDDPQEVSATVYLDKLATVISVWNSDTQNPYHQQALAEKVKEAERDVSLTSLAKLPSETIFVGCEFLHHLLREWGEELQAVLRSSQGTSYDSYRLCDSLTSFSQNATLYLNRTSLSKEDRQVVSELAECVRDFLRKTSTVLKNRALEDITASIAMAVIQQKMDRHMEVCYIFASEKKWAFSDEWVACLGSNRALFRQPDLVLRLLETVIDVSTADRAIPESQIRQVIHLILECYADLSLPGKNKVLAGILRSWGRKGLSEKLLAYVEGFQEDLNTTFNQLTQSASEQGLAKAVASVARLVIVHPEVTVKKMCSLAVVNLGTHKFLAQILTAFPALRFVEEQGPNSSATFMVSCLKETVWMKFSTPKEEKQFLELLNCLMSPVKPQGIPVAALLEPDEVLKEFVLPFLRLDVEEVDLSLRIFIQTLEANACREEYWLQTCSPFPLLFSLCQLLDRFSKYWQLPKEKRCLSLDRKDLAIHILELLCEIVSANAETFSPDVWIKSLSWLHRKLEQLDWTVGLRLKSFFEGHFKCEVPATLFEICKLSEDEWTSQAHPGYGAGTGLLAWMECCCVSSGISERMLSLLVVDVGNPEEVRLFSKGFLVALVQVMPWCSPQEWQRLHQLTRRLLEKQLLHVPYSLEYIQFVPLLNLKPFAQELQLSVLFLRTFQFLCSHSCRDWLPLEGWNHVVKLLCGSLTRLLDSVRAIQAAGPWVQGPEQDLTQEALFVYTQVFCHALHIMAMLHPEVCEPLYVLALETLTCYETLSKTNPSVSSLLQRAHEQRFLKSIAEGIGPEERRQTLLQKMSSF
notes: also called gemin4; gemin 4

Columns and labels:
[1] = molecular target: T1, Flag-epitope-tagged murine Ras-GRF2 (murine, UniProt P70392 1-1189, limits assumed); assay: anti-FLAG co-IP, MS
T1 construct: Bait; expressed stably (Clone 13, Clone 21) or transiently in human 293 cells; also called Flag-GRF2; FLAG-GRF2
T1 sequence (looked up): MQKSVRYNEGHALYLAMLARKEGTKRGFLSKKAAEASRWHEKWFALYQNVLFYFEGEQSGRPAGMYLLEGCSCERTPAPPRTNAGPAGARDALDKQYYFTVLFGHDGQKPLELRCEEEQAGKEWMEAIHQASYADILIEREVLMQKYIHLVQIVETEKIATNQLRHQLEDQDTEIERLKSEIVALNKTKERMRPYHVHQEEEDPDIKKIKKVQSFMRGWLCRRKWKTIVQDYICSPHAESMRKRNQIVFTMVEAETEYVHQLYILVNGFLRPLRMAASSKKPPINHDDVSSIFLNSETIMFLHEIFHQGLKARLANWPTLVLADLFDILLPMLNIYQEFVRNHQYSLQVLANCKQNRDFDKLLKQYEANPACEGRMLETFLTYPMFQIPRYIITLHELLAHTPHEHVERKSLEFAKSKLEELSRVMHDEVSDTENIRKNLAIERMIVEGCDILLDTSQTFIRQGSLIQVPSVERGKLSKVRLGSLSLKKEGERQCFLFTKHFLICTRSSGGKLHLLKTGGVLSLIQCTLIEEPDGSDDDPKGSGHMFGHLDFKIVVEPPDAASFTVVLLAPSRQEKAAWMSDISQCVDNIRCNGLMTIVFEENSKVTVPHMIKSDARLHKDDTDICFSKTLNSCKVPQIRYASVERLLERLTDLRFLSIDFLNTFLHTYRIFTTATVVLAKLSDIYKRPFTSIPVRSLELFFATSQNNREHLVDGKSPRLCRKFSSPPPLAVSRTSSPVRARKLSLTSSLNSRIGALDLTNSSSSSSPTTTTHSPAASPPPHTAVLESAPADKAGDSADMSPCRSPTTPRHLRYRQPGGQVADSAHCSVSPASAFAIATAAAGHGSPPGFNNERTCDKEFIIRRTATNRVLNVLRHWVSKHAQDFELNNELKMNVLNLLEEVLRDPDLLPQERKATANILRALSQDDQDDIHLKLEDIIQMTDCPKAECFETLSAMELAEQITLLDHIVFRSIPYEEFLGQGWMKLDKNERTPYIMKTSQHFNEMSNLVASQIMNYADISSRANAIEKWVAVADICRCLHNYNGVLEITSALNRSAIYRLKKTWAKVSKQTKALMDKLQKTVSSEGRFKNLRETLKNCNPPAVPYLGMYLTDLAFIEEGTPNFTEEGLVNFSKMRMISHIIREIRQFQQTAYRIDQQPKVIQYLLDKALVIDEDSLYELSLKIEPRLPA
Experimental: (§1) Forty-eight hours (h or hr) later, transfected cells (approximately 1×10⁸ cells) were washed in Tris-Saline (25 mM Tris-HCl pH 7.5, 140 mM NaCl, 8 mM KCl, 700 μM Na₂HPO₄, 5.5 mM glucose) and lysed in Lysis Buffer (KLB, 20 mM Tris-HCl pH7.5, 150 mM NaCl, 1% NP40, 0.5% sodium deoxycholate, and 0.2 mM AEBSF (4-(2-aminoethyl)-benzenesulfonyl fluoride)). Following centrifugation to remove insoluble material, clarified lysates were incubated with Sepharose-4B (10 μl packed sepharose/ml of lysate) for 20 min at 4° C. with gentle mixing (by end-over-end inversion). The supernatant was then incubated with immobilized anti-Flag monoclonal antibodies (M2-agarose, Sigma-Aldrich; 1 μl packed M2-agarose/ml lysate) for 60 min at 4° C. with gentle mixing. The M2-agarose was washed two times with 1 ml KLB lacking AEBSF, and washed one time with 1 ml of 50 mM ammonium bicarbonate. […] After 30 min at 4° C., the M2-agarose beads were removed by centrifugation, the eluted proteins were lyophilized by vacuum centrifugation and resuspended in SDS-PAGE sample buffer.

[2] = molecular target: B1; assay: anti-FLAG co-IP, MS
Experimental: as §1

## B1
[1]
  binding result: no binding

B2: FLAG-Ndr (cells treated with okadaic acid) (enzyme, not shown: small tags and cut ends)
chain: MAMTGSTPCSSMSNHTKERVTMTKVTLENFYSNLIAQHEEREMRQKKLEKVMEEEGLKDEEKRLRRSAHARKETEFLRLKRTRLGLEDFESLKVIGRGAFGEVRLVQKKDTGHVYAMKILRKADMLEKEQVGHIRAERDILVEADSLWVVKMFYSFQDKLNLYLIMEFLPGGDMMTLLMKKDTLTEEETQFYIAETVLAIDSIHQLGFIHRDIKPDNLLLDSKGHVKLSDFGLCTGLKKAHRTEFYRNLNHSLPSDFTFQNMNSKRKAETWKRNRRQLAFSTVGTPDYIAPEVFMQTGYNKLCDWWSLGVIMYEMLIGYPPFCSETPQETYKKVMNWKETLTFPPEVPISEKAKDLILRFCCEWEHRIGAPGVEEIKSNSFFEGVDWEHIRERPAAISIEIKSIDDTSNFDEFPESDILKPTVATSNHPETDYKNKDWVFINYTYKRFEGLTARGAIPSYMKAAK
notes: also called Ndr bait; active Ndr
[2]
  binding result: no binding

B3: FLAG-Ndr (K118A) mutant fusion protein (enzyme, not shown: small tags and cut ends)
chain: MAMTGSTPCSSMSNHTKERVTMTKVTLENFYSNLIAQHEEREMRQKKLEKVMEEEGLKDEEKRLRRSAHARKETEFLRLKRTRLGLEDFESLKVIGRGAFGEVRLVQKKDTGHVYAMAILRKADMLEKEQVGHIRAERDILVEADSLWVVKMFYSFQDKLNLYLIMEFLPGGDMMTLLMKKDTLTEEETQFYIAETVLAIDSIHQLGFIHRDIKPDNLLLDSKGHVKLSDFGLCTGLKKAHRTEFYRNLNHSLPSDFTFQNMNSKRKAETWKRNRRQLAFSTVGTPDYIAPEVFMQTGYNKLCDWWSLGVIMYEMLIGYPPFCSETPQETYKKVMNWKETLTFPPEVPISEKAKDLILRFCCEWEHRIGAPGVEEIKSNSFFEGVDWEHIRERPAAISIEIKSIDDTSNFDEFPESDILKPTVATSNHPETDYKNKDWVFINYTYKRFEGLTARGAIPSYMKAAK
notes: also called K118A Ndr
[2]
  binding result: no binding

B4: FLAG-PP2C (enzyme, human, UniProt O75688 1-479, looked up, not shown: small tags and cut ends)
chain: MGAFLDKPKTEKHNAHGAGNGLRYGLSSMQGWRVEMEDAHTAVVGIPHGLEDWSFFAVYDGHAGSRVANYCSTHLLEHITTNEDFRAAGKSGSALELSVENVKNGIRTGFLKIDEYMRNFSDLRNGMDRSGSTAVGVMISPKHIYFINCGDSRAVLYRNGQVCFSTQDHKPCNPREKERIQNAGGSVMIQRVNGSLAVSRALGDYDYKCVDGKGPTEQLVSPEPEVYEILRAEEDEFIILACDGIWDVMSNEELCEYVKSRLEVSDDLENVCNWVVDTCLHKGSRDNMSIVLVCFSNAPKVSDEAVKKDSELDKHLESRVEEIMEKSGEEGMPDLAHVMRILSAENIPNLPPGGGLAGKRNVIEAVYSRLNPHRESDGASDEAEESGSQGKLVEALRQMRINHRGNYRQLLEEMLTSYRLAKVEGEESPAEPAATATSSNSDAGNPVTMQESHTESESGLAELDSSNEDAGTKMSGEKI
notes: also called PP2C bait
[2]
  binding result: no binding

B5: protein 4.1 isoB (GI 182074) (other, UniProt P11171-3 1-641, looked up)
chain: MHCKVSLLDDTVYECVVEKHAKGQDLLKRVCEHLNLLEEDYFGLAIWDNATSKTWLDSAKEIKKQVRGVPWNFTFNVKFYPPDPAQLTEDITRYYLCLQLRQDIVAGRLPCSFATLALLGSYTIQSELGDYDPELHGVDYVSDFKLAPNQTKELEEKVMELHKSYRSMTPAQADLEFLENAKKLSMYGVDLHKAKDLEGVDIILGVCSSGLLVYKDKLRINRFPWPKVLKISYKRSSFFIKIRPGEQEQYESTIGFKLPSYRAAKKLWKVCVEHHTFFRLTSTDTIPKSKFLALGSKFRYSGRTQAQTRQASALIDRPAPHFERTASKRASRSLDGAAAVDSADRSPRPTSAPAITQGQVAEGGVLDASAKKTVVPKAQKETVKAEVKKEDEPPEQAEPEPTEAWKVEKTHIEVTVPTSNGDQTQKKRERLDGENIYIRHSNLMLEDLDKSQEEIKKHHASISELKKNFMESVPEPRPSEWDKRLSTHSPFRTLNINGQIPTGEGPPLVKTQTVTISDNANAVKSEIPTKDVPIVHTETKTITYEAAQTDDNSGDLDPGVLLTAQTITSETPSSTTTTQITKTVKGGISETRIEKRIVITGDADIDHDQVLVQAIKEAKEQHPDMSVTKVVVHQETEIADE
notes: also called Erythroid protein 4.1 isoform B
[1]
  binding result: no binding
